Tested on: MS2 coat protein
Assay: apparent KD of MS2 coat protein; higher = weaker reporter binding
Settings: Eterna round: R107
Outline: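 Normalised binding curves from single clusters were fitted, and the median fit for each design is given as apparent KD. The clusters held designed RNA switches transcribed on-chip from Illumina sequencing clusters. These were titrated with SNAP-549-labelled MS2 coat protein (twofold steps from 0.7 or 1.5 nM to 3 µM, 0.8–1.5 h to 10–20 min per step) in 100 mM Tris-HCl pH 7.5, 80 mM KCl, 4 mM MgCl2, without or with constant ligand.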

[1] = input ligand: theophylline 20 uM
[2] = input ligand: theophylline 2 mM
[3] = input ligand: tryptophan 2.4 mM

| Sequence | apparent KD of MS2 coat protein (input ligand: arginine 13.2 mM) [nM] | apparent KD of MS2 coat protein (input ligand: none) [nM] | apparent KD of MS2 coat protein [1] [nM] | apparent KD of MS2 coat protein [2] [nM] | apparent KD of MS2 coat protein [3] [nM] |
| --- | --- | --- | --- | --- | --- |
| CAAUUUAUAUGAAGGAGCGUCGAAAAUGGGUAAACAUGAGGAUCACCCAUGUAAAGGGAACGACAGGUAGGUCGCAUAUGGAUUG [AstromonsSSArgB#10] | 123 | 180 | 234 | 316 | 182 |
| CUAAUUAAAUCGGCCGCCACUUACUCAUGAGGUAACAACAUGAGGAUCACCCAUGUUUGAGGAUCAAGGACCGGGAUUUAAUUAG [AstrosSSTry#23] | 24.9 | – | 33.7 | 30.1 | – |
| AAUUAAUUAACCGAUACCAGCCAACCAAAACAUGAGGAUCACCCAUGUAAGAAGAAGGGUGGCCCUUGGCAGCGGUUAAUUAAUU | 31.4 | – | 16.7 | – | 30.5 |
| ACAUGAGGAUCACCCAUGUGUGUAAAUCCUCGAGGACCGGUACGGCCGCCACUCGAACGAGUGUAAGAUGAAUGUUACAUUCAUC [SS Trp A s2] | 70.8 | – | 134 | 116 | – |
| UUAUAAGUACCGGUCCUCAGAUCCUCAUGACGAGGACCGGUACGGCCGCCACUCGAAACAUGAGGAUCACCCAUGUAAUAACAUC [Brourdmod21] | 19 | – | 27.5 | 25.9 | – |
| CUCUCAUGAACAUGAGGAUCACCCAUGUAACGAGGACCGGUACGGCCGCCACUCGAACGUGGAUACCAAUCGAGUGGGUGAGAGA [Tryp A Ex t5] | 31 | 21.5 | 25.2 | 23.8 | 80.1 |
| ACAUGAGGAUCACCCAUGUGUGUAAGUCCUCGAGGACCGGUACGGCCGCCACUCGAUUGAGUGUAAGUUGAAUGUAACAUUCAAC [whbob_SS_trypto A_2s10] | 16.4 | – | 22.8 | 18.1 | – |
| ACAUGAGGAUCACCCAUGUACAUGAGGGAAGGAGCGGUACAUGUACCAGGUAGGUCGCCCAACAGCAUCAGCCAUGUACAUCAGC [ggvmullin] | 31.4 | 76.1 | 102 | 90.4 | 69 |
| AGCGACAUGCGUGAUACCAGCUACAUGAGGAUCACCCAUGUACGUAGGAAACUACUGUGUAGCCCUUGGCAGCAUAGUGCAUGUC [Exclusion - Theophylline B (Freestyle 21)] | 14.6 | – | 20 | – | 13.5 |
| CGAAUGAAGCAAGAUACCAGUGUAGAUUUAGACAUGAGGAUCACCCAUGUGAGGCAUGAGCACCCUUGGCAGCUUAAGCAGAAAA [theeternabot_sameState_MS2_Theo_B_47] | 115 | 28.7 | 25.7 | 60.5 | 29.4 |
| GGUUUAUAUAUAUAUAUAUAGAUUACUGAAGGAGCGGGAAAUAACCCAGGUAGGUCGCAGAGAUCCACAUGAGGAUCACCCAUGU [!0.E] | 37.1 | 40.2 | 55.3 | 54.3 | 36.8 |
| AAUUCCGGGUCGGCCGCCACUGAUAUGGCGAGUCCUCGAACUUACAUGAGGAUCACCCAUGUAAACAGGACCGGGACCGCAUGGG [Exclusion Tryptophan B GF 23] | 16.3 | – | 28.4 | 20.4 | – |
| AGCCCGUGAGCGGCCGCCACUGGAGGCUUUGCGCGACAUGAGGAUCACCCAUGUGUGCCCGGCGUUAGGACCGGGUUCGCGUGGU [#1 Same State - Tryptophan B Attempt #18 (HarryS)] | 30 | 38.5 | 48.7 | 45.4 | 32.4 |
| GAACAUAAGGAUAGUAUAAUGACUACAGAAGGAGCGUCAGGAAGGACAGGUAGGUCGCUGGAAGACAUGAGGAUCACCCAUGUUU [Arg A SS t2] | 25.6 | 22.8 | 35.3 | 24.5 | 19.4 |
| ACAUGAGGGCGAAGGAGCGCGUACAUGAGGAUCACCCAUGUCUAUAUCCGUCCGCGUGUAACGCAGGUAGGUCGCGCUGUUAAUU [#14 Exclusion - Arginine B] | 15.4 | 16 | 21.6 | 20 | 16.2 |
| ACAUUUAACUGAAGGAGCGUGAUAAACAUGAGGAUCACCCAUGUACCACAGAUUCUUAGAUCACAGGUAGGUCGCAGACUAAUGA [JR_ExcArginiB_Sub013] | 11.2 | 11.7 | 13.7 | 12.6 | 12.4 |

Source: the supplement of paper PMC9170038
